Measured values as given in US20220033501A1 (SHANGHAI PHARMAEXPLORER, published 2022).
Positions count from the first letter of the chain named. Blank lines part the entries; values can stand above or below the binder they belong to.

Legend:
[1] = molecular target: T1, monkey TIM-3 on CHOK1 stable cell line (CHOK1-cTIM-3) (monkey); experiment: FACS, CHOK1-cTIM-3 cells, 0.013 nM antibody
T1 chain: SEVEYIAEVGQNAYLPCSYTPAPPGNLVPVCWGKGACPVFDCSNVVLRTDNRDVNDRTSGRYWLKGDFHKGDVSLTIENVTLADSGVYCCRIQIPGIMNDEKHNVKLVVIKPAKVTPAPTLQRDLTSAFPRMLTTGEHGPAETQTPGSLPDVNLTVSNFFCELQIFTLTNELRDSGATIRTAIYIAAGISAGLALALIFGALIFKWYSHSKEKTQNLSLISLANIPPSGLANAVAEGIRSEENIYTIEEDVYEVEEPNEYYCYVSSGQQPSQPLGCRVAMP

[2] = molecular target: T1, monkey TIM-3 on CHOK1 stable cell line …; experiment: FACS, CHOK1-cTIM-3 cells, 1.6 nM antibody
[3] = molecular target: T2, murine TIM-3 extracellular domain protein with hFc tag (mTIM-3-hFc) (mouse, UniProt Q8VIM0 29-191); experiment: ELISA, coated mouse TIM-3 ECD protein, 0.0667 nM antibody
T2 construct: also called mouse TIM-3 extracellular domain protein; not shown: human IgG Fc fragment (hFc) of the pCpC vector
T2 chain: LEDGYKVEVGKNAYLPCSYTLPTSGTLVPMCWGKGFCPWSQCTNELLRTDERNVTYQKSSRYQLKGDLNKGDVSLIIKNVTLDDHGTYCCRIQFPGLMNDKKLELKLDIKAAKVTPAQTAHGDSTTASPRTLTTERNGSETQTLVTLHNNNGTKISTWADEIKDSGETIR

[4] = molecular target: T2, murine TIM-3 extracellular domain …; experiment: ELISA, coated mouse TIM-3 ECD protein, 0 nM antibody
[5] = molecular target: T1, monkey TIM-3 on CHOK1 stable cell line …; experiment: FACS, CHOK1-cTIM-3 cells, 8 nM antibody
[6] = molecular target: T1, monkey TIM-3 on CHOK1 stable cell line …; experiment: FACS, CHOK1-cTIM-3 cells, 0.064 nM antibody
[7] = molecular target: T3, human TIM-3 protein with hFc tag (hTIM-3-hFc protein) (human, UniProt Q8TDQ0 22-200); experiment: ELISA, coated hTIM-3-hFc; antibody 0.0001 nM
T3 construct: also called immunogen 1; human TIM-3 extracellular domain protein; not shown: human IgG Fc fragment (hFc) of the pCpC vector
T3 sequence: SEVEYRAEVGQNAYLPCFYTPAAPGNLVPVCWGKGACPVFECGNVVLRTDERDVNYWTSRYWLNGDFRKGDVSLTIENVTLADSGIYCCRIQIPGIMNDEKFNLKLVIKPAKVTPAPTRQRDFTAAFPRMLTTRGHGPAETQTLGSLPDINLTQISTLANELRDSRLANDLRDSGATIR
Description: (§1) The amino acid sequence 22-200 of the extracellular domain of the human TIM-3 protein described in the step of Example 1 (as shown in SEQ ID NO. 71 in the sequence listing) was cloned into a pCpC vector having a human IgG Fc fragment (hFc), and transfected into HEK293 cells. The cell culture medium was collected, and purified to obtain the human TIM-3 protein with hFc tag (herein referred to as hTIM-3-hFc protein). The amino acid sequence 22-201 of the extracellular domain of the monkey TIM-3 protein (as shown in SEQ ID NO. 72 in the sequence listing) was cloned into a pCpC vector having a human IgG Fc fragment (hFc), and transfected into HEK293 cells. The cell culture medium was collected, and purified to obtain the monkey TIM-3 protein with hFc tag (herein referred to as cTIM-3-hFc protein). […] The cell culture medium was collected, and purified to obtain the murine TIM-3 protein with hFc tag (herein referred to as mTIM-3-hFc protein). Purified human, monkey, and mouse TIM-3 extracellular domain proteins (hTIM-3-hFc, cTIM-3-hFc, and mTIM-3-hFc) were diluted with PBS to a final concentration of 1.0 μg/ml and then added to a 96-well ELISA plate with 100 μl per well. The plate was sealed with plastic film and incubated overnight at 4° C. The plate was washed 4 times with the plate washing solution (PBS+0.01% Tween20) on the next day, and added with the blocking solution (PBS+0.01% Tween20+1% BSA) and sealed at room temperature for 1-2 hours. The blocking solution was poured out. 50-100 μl of the antibody sample to be tested was added to each well. The plate was incubated at 37° C. for 1-2 hours, and washed 2-3 times with plate washing solution (PBS+0. 01% Tween20). HRP (horseradish peroxidase) labeled secondary antibody was added. The plate was incubated at 37° C. for 1-2 hours, and washed 2-3 times with plate washing solution (PBS+0. 01% Tween20). […] of TMB substrate was added to each well. After incubated at room temperature for 15-30 minutes, the plate was added with […] stop solution (1.0N HCl) to each well. An ELISA plate reader (TiterMax 384plus, Molecular Device) was used to read the A450 nm value.

[8] = molecular target: T4, murine TIM-3 protein with hFc tag (mTIM-3-hFc protein) (mouse; human, UniProt Q8VIM0 29-191); experiment: ELISA, coated mTIM-3-hFc; antibody 0.0667 nM
T4 construct: Made in HEK293 cells; also called mouse TIM-3 extracellular domain protein; not shown: human IgG Fc fragment (hFc) of the pCpC vector
T4 chain: T2 chain
Description: as §1

[9] = molecular target: T5, monkey TIM-3 protein with hFc tag (cTIM-3-hFc protein) (monkey; human); experiment: ELISA, coated cTIM-3-hFc; antibody 66.667 nM
T5 construct: Made in HEK293 cells; also called monkey TIM-3 extracellular domain protein; not shown: human IgG Fc fragment (hFc) of the pCpC vector
T5 chain: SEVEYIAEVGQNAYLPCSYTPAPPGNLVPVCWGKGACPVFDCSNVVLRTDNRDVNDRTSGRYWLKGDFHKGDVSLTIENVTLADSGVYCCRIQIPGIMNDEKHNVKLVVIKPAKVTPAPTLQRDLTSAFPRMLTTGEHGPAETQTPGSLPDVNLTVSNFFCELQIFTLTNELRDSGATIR
Description: as §1

[10] = molecular target: T3, human TIM-3 protein with hFc tag …; experiment: ELISA, coated hTIM-3-hFc; antibody 6.6667 nM
Description: as §1

B1: 215A8F2 fully human TIM-3 antibody (human IgG4, kappa) (antibody, V domains shown)
VH: QVQLQQWGAGLLKPSETLSLTCTVYGGSFSGYYWNWIRQPPGKGLEWLGEINHSGSTNYNPSLKRRVTISVDTSKNQFSLKLSSVTAADTAVYYCARVYYYGPFDFWGQGTLVTVSS
VL: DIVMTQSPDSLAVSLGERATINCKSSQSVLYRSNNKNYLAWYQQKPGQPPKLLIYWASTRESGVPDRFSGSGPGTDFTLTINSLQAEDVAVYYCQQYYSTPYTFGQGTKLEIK
Mean fluorescence intensity [1]: 11.5 | Mean fluorescence intensity [2]: 252 | OD450 [3]: 0.31 | OD450 [4]: 0.21 | Mean fluorescence intensity [5]: 362 | Mean fluorescence intensity [6]: 29.9

B2: 215A8F2 (TIM-3 antibody purified from hybridoma, chimeric antibody of Example 2) (antibody, V domains shown)
VH: B1 VH
VL: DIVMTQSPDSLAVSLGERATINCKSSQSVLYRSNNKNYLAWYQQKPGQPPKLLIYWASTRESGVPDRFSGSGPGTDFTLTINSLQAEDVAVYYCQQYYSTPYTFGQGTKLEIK
notes: From hybridoma of Harbour H2L2 transgenic mice: human variable regions, rat constant regions
OD450 [7]: 0.12 | OD450 [8]: 0.67 | OD450 [9]: 3.49 | OD450 [10]: 3.15

B3: 7A4F10 fully human TIM-3 antibody (human IgG4, kappa) (antibody, V domains shown)
VH: EVQLLESGGGLVQPGGSLRLSCAASGFTFRTHLISWVRQAPGKGLEWVAAITGSGGSTYYADSVKGRFIISRDNSKNTLFLQMNSLRAEDTAVYYCAKDGGSGSYDDFWGQGTLVTVSS
VL: ETVLTQSPVTLSLSPGERATLSCRASQSVGSYLAWYQQKPGQAPRLLIYDASNRATGIPARFSGSGSGTDFTLTISSLEPEDFAVYYCQQRSNWPPTFGQGTKVEIK
Mean fluorescence intensity [1]: 7.1 | Mean fluorescence intensity [2]: 177 | OD450 [3]: 0.22 | OD450 [4]: 0.23 | Mean fluorescence intensity [5]: 325 | Mean fluorescence intensity [6]: 17.2

B4: 7A4F10 (TIM-3 antibody purified from hybridoma, chimeric antibody of Example 2) (antibody, V domains shown)
VH: B3 VH
VL: B3 VL
notes: as for B2
OD450 [7]: 0.12 | OD450 [8]: 0.62 | OD450 [9]: 3.46 | OD450 [10]: 2.92

B5: 34B6D8 (TIM-3 antibody purified from hybridoma, chimeric antibody of Example 2) (antibody, V domains shown)
VH: EVQLVESGGGLVQPGGSLRLSCAASGFTFSTYWMTWVRQAPGKRLEWVANIKQGGGDKYYVDSVKGRFTISTDNAKNSLYLQMNSLRAEDTAVYYCARGSNWFDPWGQGTLVTVSS
VL: EIVMTQSPATLSMSPGERATLSCRASQSVYDNLAWYQQKPGQAPRLLIYGASTRATGIPARFSGSGSGTEFTLTISSLQSEDFALYYCQQYTHWPITFGQGTRLEIK
notes: as for B2
OD450 [7]: 0.12 | OD450 [8]: 0.68 | OD450 [9]: 3.52 | OD450 [10]: 3.4

B6: 57F4E5 fully human TIM-3 antibody (human IgG4, kappa) (antibody, V domains shown)
VH: EVQLVESGGGLVQPGGSLRLSCAASGFTFSSYWMSWVRQAPGKGLEWVANIKQDGSEKYYVDSVKGRFTISRDSAKNSLYLQMNSLRAEDTAMYFCARDSNFFDYWGQGTLVTVSS
VL: ETVMTQSPATLSVSPGERATLSCRASQSVSSNLAWYQRKPGQAPRLLIYFSSTRATGIPARFSGSGSGTEFTLTISSLQSEDFAVYYCQQYNNWPLTFGGGTKVEIK
Mean fluorescence intensity [1]: 11.4 | Mean fluorescence intensity [2]: 207 | OD450 [3]: 0.33 | OD450 [4]: 0.24 | Mean fluorescence intensity [5]: 259 | Mean fluorescence intensity [6]: 30.6

B9: 57F4E5 (TIM-3 antibody purified from hybridoma, chimeric antibody of Example 2) (antibody, V domains shown)
VH: B6 VH
VL: B6 VL
notes: as for B2
OD450 [7]: 0.13 | OD450 [8]: 0.64 | OD450 [9]: 3.47 | OD450 [10]: 3.29

B10: 134H3G6 fully human TIM-3 antibody (human IgG4, kappa) (antibody, V domains shown)
VH: EVQLVESGGGLVQPGGSLRLSCAASGFTFSNSWMTWVRQAPGKGLEWVANIKQAGTEKYYVDSVKGRFTISRDNAKNSLYLQMNSLRAEDTAVYYCNSGSNYFDYWGQGTLVTVSS
VL: B6 VL with T2I, S26R, S28N, V29F, S30Y, R38Q, F50G, S51A
Mean fluorescence intensity [1]: 16.8 | Mean fluorescence intensity [2]: 326 | OD450 [3]: 0.21 | OD450 [4]: 0.22 | Mean fluorescence intensity [5]: 401 | Mean fluorescence intensity [6]: 46.4

Further lines, results first:

OD450 [7]: 0.12 | OD450 [8]: 0.67 | OD450 [9]: 3.44 | OD450 [10]: 2.86
B7: 18D2H2 (TIM-3 antibody purified from hybridoma, chimeric antibody of Example 2) (antibody, V domains shown)
VH: B5 VH with G10D, K43R, R44G, G54D, G56S, D57A, I70L, T72R, N74D, P105Y
VL: B6 VL with S26N, S28N, S30Y, R38Q, F50D, S51A, I58F
notes: as for B2

OD450 [7]: 0.12 | OD450 [8]: 0.65 | OD450 [9]: 3.43 | OD450 [10]: 2.57
B8: 134H3G6 (TIM-3 antibody purified from hybridoma, chimeric antibody of Example 2) (antibody, V domains shown)
VH: B10 VH
VL: B6 VL with T2I, S26R, S28N, V29F, S30Y, R38Q, F50G, S51A
notes: as for B2

Mean fluorescence intensity [1]: 14.8 | Mean fluorescence intensity [2]: 333 | OD450 [3]: 0.22 | OD450 [4]: 0.22 | Mean fluorescence intensity [5]: 475 | Mean fluorescence intensity [6]: 44
B11: 18D2H2 fully human TIM-3 antibody (human IgG4, kappa) (antibody, V domains shown)
VH: B5 VH with G10D, K43R, R44G, G54D, G56S, D57A, I70L, T72R, N74D, P105Y
VL: B6 VL with S26N, S28N, S30Y, R38Q, F50D, S51A, I58F

OD450 [7]: 0.13 | OD450 [8]: 0.68 | OD450 [9]: 3.47 | OD450 [10]: 3.34
B12: 39E5H1 (TIM-3 antibody purified from hybridoma, chimeric antibody of Example 2) (antibody, V domains shown)
VH: B5 VH with T31S, T35S, R44G, Q53R, G56S, D57E, K58R, T72G, L79V
VL: B5 VL with I2T, T10I, M13V, D31S, P40L, G50D, L85V, T92N, H93N
notes: as for B2
